In this test the target is S蛋白, SARS-CoV-2原型毒株 (SARS-CoV-2 (prototype)) (UniProt P0DTC2). In words: cell-based or functional assay.

Our source for the 假病毒中和活性 IC50 values is patent CN117603358A.

LY-CoV1404 (antibody) returned a 假病毒中和活性 IC50 of 1.19 ng/mL.
